# Data reported in paper PMC7840130 (Science Advances, 2021).
# Where two headings read alike, the source gives them in different places.
# B1: BcsB (in the Bcs macrocomplex) (natural protein, E. coli 1094, UniProt P37652 26-779, looked up)
# chain: TPATQPLINAEPAVAAQTEQNPQVGQVMPGVQGADAPVVAQNGPSRDVKLTFAQIAPPPGSMVLRGINPNGSIEFGMRSDEVVTKAMLNLEYTPSPSLLPVQSQLKVYLNDELMGVLPVTKEQLGKKTLAQMPINPLFISDFNRVRLEFVGHYQDVCEKPASTTLWLDVGRSSGLDLTYQTLNVKNDLSHFPVPFFDPSDNRTNTLPMVFAGAPDVGLQQASAIVASWFGSRSGWRGQNFPVLYNQLPDRNAIVFATNDKRPDFLRDHPAVKAPVIEMINHPQNPYVKLLVVFGRDDKDLLQAAKGIAQGNILFRGESVVVNEVKPLLPRKPYDAPNWVRTDRPVTFGELKTYEEQLQSSGLEPAAINVSLNLPPDLYLMRSTGIDMDINYRYTMPPVKDSSRMDISLNNQFLQSFNLSSKQEANRLLLRIPVLQGLLDGKTDVSIPALKLGATNQLRFDFEYMNPMPGGSVDNCITFQPVQNHVVIGDDSTIDFSKYYHFIPMPDLRAFANAGFPFSRMADLSQTITVMPKAPNEAQMETLLNTVGFIGAQTGFPAINLTVTDDGSTIQGKDADIMIIGGIPDKLKDDKQIDLLVQATESWVKTPMRQTPFPGIVPDESDRAAETRSTLTSSGAMAAVIGFQSPYNDQRSVIALLADSPRGYEMLNDAVNDSGKRATMFGSVAVIRESGINSLRVGDVYYVGHLPWFERVWYALANHPILLAVLAAISVILLAWVLWRLLRIISRRRLNPDNE
# B2: full-length E. coli BcsB^His (natural protein, E. coli 1094, UniProt P37652 26-779, looked up)
# chain: B1 chain
# Key:
# [1] = target: BcsQ (in the Bcs macrocomplex) (E. coli 1094) (UniProt P37655); assay: cryo-EM structure
# BcsQ^His (E. coli 1094) = BcsQ^His (E. coli 1094) (UniProt P37655); assay: crystal structure
# [2] = target: T1, BcsA^HA-FLAG (in the Bcs macrocomplex) (E. coli 1094, UniProt P37653 1-872); assay: cryo-EM structure
# T1 sequence (looked up): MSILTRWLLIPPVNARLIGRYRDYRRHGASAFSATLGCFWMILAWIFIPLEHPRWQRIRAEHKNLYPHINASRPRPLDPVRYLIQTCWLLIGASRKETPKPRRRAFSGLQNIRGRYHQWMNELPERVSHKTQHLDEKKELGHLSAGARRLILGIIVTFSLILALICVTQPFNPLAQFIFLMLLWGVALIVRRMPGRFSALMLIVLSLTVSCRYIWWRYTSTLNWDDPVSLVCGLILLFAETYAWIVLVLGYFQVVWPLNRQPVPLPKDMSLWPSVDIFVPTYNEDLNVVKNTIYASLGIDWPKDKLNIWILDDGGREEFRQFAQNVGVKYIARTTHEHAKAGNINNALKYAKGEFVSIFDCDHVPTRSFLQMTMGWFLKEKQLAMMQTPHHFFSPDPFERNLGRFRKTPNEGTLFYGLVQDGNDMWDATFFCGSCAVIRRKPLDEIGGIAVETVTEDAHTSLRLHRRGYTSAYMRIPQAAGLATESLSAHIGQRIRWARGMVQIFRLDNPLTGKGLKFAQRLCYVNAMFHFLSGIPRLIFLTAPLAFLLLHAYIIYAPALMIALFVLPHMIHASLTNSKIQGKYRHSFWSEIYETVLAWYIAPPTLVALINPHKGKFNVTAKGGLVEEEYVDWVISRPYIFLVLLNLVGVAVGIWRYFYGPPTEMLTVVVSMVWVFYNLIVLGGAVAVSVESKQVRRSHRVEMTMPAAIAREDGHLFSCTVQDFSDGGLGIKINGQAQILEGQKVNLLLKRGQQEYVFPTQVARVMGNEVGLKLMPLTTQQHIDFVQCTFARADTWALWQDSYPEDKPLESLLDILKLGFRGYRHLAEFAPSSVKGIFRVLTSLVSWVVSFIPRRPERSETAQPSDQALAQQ
# cryo-EM structure [3] = target: the molecule itself; assay: cryo-EM structure
# cryo-EM structure [4] = target: the molecule itself; assay: cryo-EM structure; remark: listed apart in the source
molecule,measurement,setting,value
BcsQ (in the Bcs macrocomplex) (from UniProt P37655 1-242) (natural protein),stoichiometry N,[1],2
BcsQ^His (from UniProt P37655 1-242) (natural protein),stoichiometry N,BcsQ^His (E. coli 1094),2
B1,binding result,[2],binds
same,stoichiometry N,cryo-EM structure [3],≤ 6
B2,stoichiometry N,cryo-EM structure [4],8
